This is an account of results in article PMC6367718 (Cell, 2019).

The target of data set [1] is T1, TRV055-occupied FLAG-AT1R (human, UniProt P30556).
T1 chain 1: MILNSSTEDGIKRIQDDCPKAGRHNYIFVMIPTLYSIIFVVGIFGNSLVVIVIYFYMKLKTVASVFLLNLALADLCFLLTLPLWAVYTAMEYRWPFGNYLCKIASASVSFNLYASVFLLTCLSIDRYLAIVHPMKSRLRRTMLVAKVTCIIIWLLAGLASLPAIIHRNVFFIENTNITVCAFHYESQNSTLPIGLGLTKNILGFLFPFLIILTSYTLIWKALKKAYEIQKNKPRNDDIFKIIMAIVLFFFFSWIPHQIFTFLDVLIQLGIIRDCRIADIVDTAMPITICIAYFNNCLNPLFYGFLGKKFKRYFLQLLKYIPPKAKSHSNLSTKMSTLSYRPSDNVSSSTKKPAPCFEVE
T1 chain 2: GVYIHPF
Nature of the data set: radioligand binding.

The data set “crystal structure” concerns the molecule itself. Nature of the data set: crystal structure.

B1: Nb.AT110, purified (VHH)
VHH: QVQLQESGGGLVQAGGSLRLSCAASGNIFDADIMGWYRQAPGKERELVASITDGGSTNYADSVKGRFTISRDNAKNTVYLQMNSLKPEDTAVYYCAAIAYPDIPTYFDYDSDYFYWGQGTQVTVSS
As to B1, the “log EC50 (M) of the change in the log IC50 of TRV055” value in data set [1] was -6.6 log M.

B2: Nb.AT110i1, carboxypeptidase A-treated (for crystallography) (VHH)
VHH: QVQLQESGGGLVQAGGSLRLSCAASGNIFDVDIMGWYRQAPGKERELVASITDGGSTDYADSVKGRFTISRDNAKNTVYLQMNSLKPEDTAVYYCAAVAYPDIPTYFDYDSDNFYWGQGTQVTVSS
As to B2, the binding result in “crystal structure” is on record as “binds”.
